Measurements as given in the RNAGym collection of RNA variant scans (doi:10.1073/pnas.2313332121).

B1: TPR t1 (parent)
chain: GACCAAUCUGCCCUCAGAGCUCGAGAACAUCUUCGGAUGCAGAGGAGGCAGGCUUCGGUGGCGCGAUAGCGCCAACGUCCUCAACCUCCAAUGCAUCCCACCACAUGAUGAUGCCUGAAGAGCCUUGGUUUUUUG

Variants of: B1
Assay: polymerase ribozyme fitness, log enrichment relative to wild type (log ratio); higher = more active; in vitro selection for triplet polymerase activity
In short: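 A heterodimeric triplet polymerase ribozyme had each of its subunits mutagenized by PCR into a library, which was transcribed. One round of in vitro selection, done in triplicate, annealed each library with a biotinylated primer, its partner subunit and triplets, then incubated it frozen at −7 °C before gel excision of extended constructs, streptavidin-bead capture and RT-PCR. Fitness is the logarithm of genotype enrichment relative to wild-type enrichment, based on Illumina sequencing of inputs and outputs and inverse-variance-weighted replicate averages. A base-2 logarithm is used, and genotypes were kept only with ≥10 input reads and ≥1 read per output.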

Compared with A29U U54G U55G C101U, A29U G60A U78C C102A U112C is higher in “polymerase ribozyme fitness (log ratio)” value: -4.04 for the first, -3.58 for the second.

Going from C31A C72U to A29G A37C G45C, the “polymerase ribozyme fitness (log ratio)” value rises from -5.82 to -3.58.

First: A29U G77U
Second: U30G C70G C89A A111G
The “polymerase ribozyme fitness (log ratio)” value of the first is higher: -1.77 for the first, -7.35 for the second.

Going from A29U C73G to U30G C34G C40U C73U A91C C114U, the “polymerase ribozyme fitness (log ratio)” value falls from -1.92 to -7.29.

First: C31G A50U G60C G110C
Second: A29G A50U C73G
The “polymerase ribozyme fitness (log ratio)” value of the first is lower: -6.92 for the first, -1.85 for the second.

First: A29U C40G G52C G69C A121G U132C
Second: A29G U92A
The “polymerase ribozyme fitness (log ratio)” value of the first is higher: -2.06 for the first, -3.71 for the second.

Going from U30G C79G U106A to A29G A118U G120C, the “polymerase ribozyme fitness (log ratio)” value rises from -3.54 to -1.87.

Compared with A29U A74C, U30G C56G U106A U125A is lower in “polymerase ribozyme fitness (log ratio)” value: -1.73 for the first, -2.32 for the second.

First: C31A G44U G47C U78G G120C G127U
Second: A29U A66G
The “polymerase ribozyme fitness (log ratio)” value of the first is lower: -6.6 for the first, -3.28 for the second.

First: A29G C56G C62A
Second: A29U C40A U109C U130G
The “polymerase ribozyme fitness (log ratio)” value of the first is higher: -4.43 for the first, -6.92 for the second.

Going from A29G C31G U55G C124U to A29U G45U G69U, the “polymerase ribozyme fitness (log ratio)” value rises from -6.79 to -2.7.

Going from A29G A46C A50G U54C G120U C123A U129C to U30A G71U, the “polymerase ribozyme fitness (log ratio)” value falls from -4.1 to -4.91.

Going from A29U U78A to U30G G60C U112A G127U U129G, the “polymerase ribozyme fitness (log ratio)” value falls from -1.8 to -5.06.

Going from A29C G61C U87A to A29U G45U, the “polymerase ribozyme fitness (log ratio)” value rises from -4.41 to -3.1.

Compared with C31G C70A, U30C G61A is higher in “polymerase ribozyme fitness (log ratio)” value: -7.42 for the first, -2.02 for the second.

Compared with A29C G63A G120U, A29G U109C is higher in “polymerase ribozyme fitness (log ratio)” value: -3.1 for the first, 0.997 for the second.

Going from A29C A121U to A29U G42C G113U U129A, the “polymerase ribozyme fitness (log ratio)” value falls from 0.0449 to -4.15.

Going from A29C C62A to C31A G45C C49U G69U C82U G107A, the “polymerase ribozyme fitness (log ratio)” value falls from -3 to -5.05.

First: A29C G44U C73G C82G U112C C115G
Second: A29C C53G U133G
The “polymerase ribozyme fitness (log ratio)” value of the first is lower: -7.14 for the first, -4.74 for the second.

Going from A29G C85G C88U to A29G G110A, the “polymerase ribozyme fitness (log ratio)” value rises from -2.58 to -2.21.

Compared with U30C A37C C73G U96A C115U, C31G G71U C94G A121G U132C is lower in “polymerase ribozyme fitness (log ratio)” value: -5.56 for the first, -7.12 for the second.

First: A29G A43G
Second: U30A U106A C124G
The “polymerase ribozyme fitness (log ratio)” value of the first is lower: -2.43 for the first, -2.11 for the second.

Compared with U30C C124U, A29G C123U is higher in “polymerase ribozyme fitness (log ratio)” value: -1.4 for the first, -0.36 for the second.

Compared with A29G C123G, C31G C53A G107C is lower in “polymerase ribozyme fitness (log ratio)” value: 0.246 for the first, -1.38 for the second.

Going from U30G G60C C124U to U30C G71A, the “polymerase ribozyme fitness (log ratio)” value rises from -5.4 to -2.58.

Going from A29G U126A to U30A C72G, the “polymerase ribozyme fitness (log ratio)” value falls from -2.42 to -6.04.

Going from A29G G107A to A29U G45U G120A G128U, the “polymerase ribozyme fitness (log ratio)” value rises from -5.6 to -3.92.

First: A29G A84C C94U U106A G120A U125G
Second: A29G C97U C101A A103U G120A U133G
The “polymerase ribozyme fitness (log ratio)” value of the first is higher: -0.885 for the first, -7 for the second.

Going from A29U U109C C124A to U30C G113C, the “polymerase ribozyme fitness (log ratio)” value rises from -3.97 to -3.49.

Going from A29G G77A U78A C123A to C31G A37U G71A C76U U78G A105C G110C, the “polymerase ribozyme fitness (log ratio)” value falls from -2.27 to -6.15.

Compared with C31G G58U G61A C62G A83U U109A C124U, A29U C73A A118U is higher in “polymerase ribozyme fitness (log ratio)” value: -6.38 for the first, -0.992 for the second.

First: C31A C73A
Second: A29C G48A A50C
The “polymerase ribozyme fitness (log ratio)” value of the first is lower: -5.35 for the first, -3.87 for the second.

Compared with A29U C72U U92C, A29G A103C U106A is lower in “polymerase ribozyme fitness (log ratio)” value: -2.98 for the first, -5.73 for the second.

First: C31G C56U G61A G69A U87G C123G
Second: C31G C34U U109G G110C
The “polymerase ribozyme fitness (log ratio)” value of the first is lower: -7.19 for the first, -6.14 for the second.

Going from A29U G60C C89A G110A to A29G U112A, the “polymerase ribozyme fitness (log ratio)” value rises from -5.77 to 0.263.

First: C31G C114A
Second: A29U G45C G61A A111G C124G
The “polymerase ribozyme fitness (log ratio)” value of the first is lower: -6.73 for the first, -3.05 for the second.

First: U30C G63A C124G
Second: A29C A50U C123U U129G
The “polymerase ribozyme fitness (log ratio)” value of the first is higher: -3.09 for the first, -4.5 for the second.

Going from A29G to A29C, the “polymerase ribozyme fitness (log ratio)” value falls from -0.987 to -2.15.

First: A29U
Second: A29U G39A G117A
The “polymerase ribozyme fitness (log ratio)” value of the first is higher: -1.67 for the first, -2.71 for the second.

Going from A29G G77U to U30C A43U, the “polymerase ribozyme fitness (log ratio)” value falls from -1.38 to -4.23.

U30A C73U and U30A G39C C49A are within 0.2 log units of each other in “polymerase ribozyme fitness (log ratio)” value: -5.38 for the first, -5.37 for the second.

First: A29U G117A
Second: A29C G61A C88G C114G
The “polymerase ribozyme fitness (log ratio)” value of the first is higher: -3.25 for the first, -6.84 for the second.
